The supplement of paper PMC11136658

Test system: peptide library, one residue held at a place counted from the Y acceptor
Experiment: relative phosphorylation of the sub-library (ratio to the mean residue at this position); higher = residue favoured
Method in brief: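 Purified recombinant kinases were given 50 μM ATP with γ-32P-ATP and biotinylated Tyr-centred peptide library mixtures for 90 min in 384-well plates. Peptides bound to streptavidin membranes were rinsed and quantified by phosphorimaging, and intensities were normalized per position by the sum of the 18 randomized residues (16 with the Ser/Thr-free library) and multiplied by that number. The reported values are phosphorylation relative to the mean randomized residue.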

Sequence of PKMYT1, construct: Full length, human (Q99640 whole entry, looked up): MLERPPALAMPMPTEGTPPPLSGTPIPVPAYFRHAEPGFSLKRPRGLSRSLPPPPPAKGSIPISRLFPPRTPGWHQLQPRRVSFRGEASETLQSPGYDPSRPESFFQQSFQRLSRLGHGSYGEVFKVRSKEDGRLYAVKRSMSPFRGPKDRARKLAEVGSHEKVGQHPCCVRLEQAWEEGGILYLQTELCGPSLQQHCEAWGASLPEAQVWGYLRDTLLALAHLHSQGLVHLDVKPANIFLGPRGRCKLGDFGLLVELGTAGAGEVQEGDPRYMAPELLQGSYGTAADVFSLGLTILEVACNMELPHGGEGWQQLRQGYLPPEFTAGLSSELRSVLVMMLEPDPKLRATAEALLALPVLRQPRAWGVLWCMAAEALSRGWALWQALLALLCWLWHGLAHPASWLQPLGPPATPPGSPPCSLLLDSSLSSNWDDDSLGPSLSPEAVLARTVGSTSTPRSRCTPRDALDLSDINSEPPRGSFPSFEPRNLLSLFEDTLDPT

PINK1, construct: Full length, Tribolium castaneum (from UniProt D6WMX4)
relative phosphorylation
Conditions	at +1	at +2	at +3	at +4	at +5	at -1	at -2	at -3	at -4	at -5
A fixed	0.901	0.835	0.881	0.879	0.893	0.907	0.869	0.893	0.948	0.916
D fixed	0.823	0.834	0.831	0.914	0.84	0.931	0.892	0.906	1.05	1.09
E fixed	0.789	0.792	0.875	0.938	0.813	1.22	0.916	0.938	1.42	1.04
F fixed	1.43	1.12	1.08	1.07	1.05	1.17	1.11	0.986	1.1	0.984
G fixed	0.902	0.767	0.78	0.909	0.88	1.15	0.931	0.838	0.884	0.936
H fixed	1.23	1.15	1.07	1.1	1.07	0.97	1.05	1.08	1.01	1.09
I fixed	0.847	0.804	0.852	0.84	0.832	1	0.922	0.781	0.868	0.888
K fixed	0.937	1.59	1.31	1.32	1.31	1	1.13	1.2	1.03	1.18
L fixed	0.737	0.831	0.881	0.882	0.876	0.814	0.889	0.862	0.793	0.82
M fixed	0.762	1.01	0.959	0.869	0.891	0.819	0.824	0.849	0.798	0.85
N fixed	0.936	1	0.91	0.954	1.02	0.948	1.21	0.981	0.871	0.893
P fixed	0.778	0.786	0.909	0.885	0.876	0.911	0.843	0.851	0.828	0.911
Q fixed	0.862	0.989	0.973	0.99	1.02	0.998	0.996	1.09	0.934	0.887
R fixed	1.16	1.71	1.61	1.57	1.68	1.3	1.36	1.82	1.35	1.35
V fixed	0.784	0.805	0.857	0.797	0.816	0.853	0.911	0.819	0.817	0.874
W fixed	2.12	0.972	1.23	1.09	1.15	1	1.14	1.11	1.31	1.29
pThr fixed	0.939	0.843	0.735	0.99	0.826	1.29	0.841	1.06	1.04	1.06
pTyr fixed	1.3	0.83	0.872	1.26	0.978	1.25	0.995	1.2	1.16	1.11

PKMYT1, construct: Full length, human (from UniProt Q99640)
relative phosphorylation
Conditions	at +1	at +2	at +3	at +4	at +5	at -1	at -2	at -3	at -4	at -5
A fixed	0.864	0.982	0.813	1.11	0.947	1.04	1.05	1.2	1.2	1.16
D fixed	0.69	0.754	0.728	0.889	0.933	0.756	0.814	0.784	0.792	0.741
E fixed	0.834	0.775	0.66	0.833	0.979	0.845	0.915	0.837	0.84	0.772
F fixed	0.794	1.12	1.55	1.01	1.03	0.72	1.01	1.09	1.06	1.18
G fixed	1.64	1.08	1.01	1.18	1.03	2.03	1.4	1.14	1.27	0.902
H fixed	0.813	0.945	0.911	1.11	1.13	0.945	1.14	1.06	1.01	1.15
I fixed	1.29	1.03	1.24	1.1	1	0.863	1.09	0.996	0.901	1.02
K fixed	1	1.32	0.831	1.09	1	1.02	0.978	0.943	1.03	1.2
L fixed	0.691	0.935	0.973	0.928	0.912	0.705	0.791	0.867	0.758	0.886
M fixed	0.837	0.935	0.988	0.966	0.936	0.751	0.897	0.883	0.875	0.908
N fixed	0.774	0.873	0.728	0.785	0.905	0.834	0.982	0.93	0.87	0.885
P fixed	1.35	1.14	1.09	0.925	1.02	1.45	1	1.11	1.14	0.842
Q fixed	0.865	0.821	0.667	0.787	0.853	0.828	0.777	0.867	0.928	0.855
R fixed	1.18	1.25	0.938	1.12	1.29	1.18	1.08	1.23	1.26	1.31
V fixed	1.39	1.07	0.967	0.998	0.918	1.01	1.09	1.04	0.936	0.928
W fixed	0.992	0.962	1.92	1.16	1.12	1.02	0.995	1.02	1.15	1.26
pThr fixed	0.868	0.729	0.691	0.838	0.635	1.04	0.974	0.888	0.912	0.719
pTyr fixed	0.831	0.87	0.7	0.883	0.789	1.83	0.974	1.05	0.841	0.849
